In the MegaScale stability set (Tsuboyama et al. 2023):

B1: 2M8U (parent)
chain: TKAQVIEAFKVFDRDGNGYVTVDYLRKVLNELGDMMPADEIEEMIYEADPQNSGYVQYETFVGMLFL

Variants of: B1
Test: folding stability dG (cDNA display proteolysis); higher = more stable
Settings: PBS, room temperature

Variant	folding stability dG [kcal/mol]
TKAQVIEAFKVFDRDGNGYVTVDYLRKVLNELGDMMPADEIEEDIYEADPQNSGYVQYETFVGMLFL [M44D]	2.25
TKAQVIEAFKVFDRDGNGYVTVDYLRKVLNELGDMMPADEIEEKIYEADPQNSGYVQYETFVGMLFL [M44K]	3.56
TKAQVIEAFKVFDRDGNGYVTVDYLRKVLNELGDMMPADEIEEIIYEADPQNSGYVQYETFVGMLFL [M44I]	3.05
TKAQVIEAFKVFDRLGNGYVTVDYLRKVLNELGDMMPADEIEEMIYEADPQNSGYVQYETFVGMLFL [D15L]	3.17
TKAQVIEAFKVFDRCGNGYVTVDYLRKVLNELGDMMPADEIEEMIYEADPQNSGYVQYETFVGMLFL [D15C]	2.9
TKAQVIEAFKVFDRDGNGYVTVDYLRKVLNELGDMMPADEIEEMIYEAVPQNSGYVQYETFVGMLFL [D49V]	2.58
TKAQVIEAFKVFDRDGNGYVTVDYLRKVLNELGDMMPADEIEEMIYEAPPQNSGYVQYETFVGMLFL [D49P]	2.15
TKAQVIEAFKVFDRDGNGYVTVDYLRKVLNELGDMMPADEIEEMIYEATPQNSGYVQYETFVGMLFL [D49T]	2.83
TKAQVIEAFKVFDRDGNGYVTVDYLRKVLNELGDMMPADEIEEMIKEADPQNSGYVQYETFVGMLFL [Y46K]	3.64
TKAQVIEAFKVFDRDGNGYVTVDYLRKVLNELGDMMPADEIEEMIYEADPQVSGYVQYETFVGMLFL [N52V]	3.26
TKAQVIEAFKVFDRDGNGYVTVDYLRKVLPELGDMMPADEIEEMIYEADPQNSGYVQYETFVGMLFL [N30P]	2.6
TKAQVIEAFKVFDRDGNGYVTVDYLRKVLNELGDMMPADEIEDMIYEADPQNSGYVQYETFVGMLFL [E43D]	3.6
TKAQVIEAFKVFDRDGNGYVTVDYLRKVLNELGDMMPADEIEKMIYEADPQNSGYVQYETFVGMLFL [E43K]	3.75
TKAQVIEAFKVFDRDGNGYVTVDYLRKVLNELGDMMPADEIEEMYYEADPQNSGYVQYETFVGMLFL [I45Y]	2.5
TKAQVIEAFKVFDRDGNGYVTVDYLRKVLNELGDMMPADEIEEMAYEADPQNSGYVQYETFVGMLFL [I45A]	2.37
TKAQVIEAFKVFDRDGNGYVTVDYLRKVLNELGDMMPADEIEEMIYEFDPQNSGYVQYETFVGMLFL [A48F]	3.44
TKAQVIEAFKVFDRDGNGYVTVDYLRKVLNELGDMMPADEIEEMIYELDPQNSGYVQYETFVGMLFL [A48L]	3.45
TKAQVIEAFKVFDRDGNGYVTVDYLRKVLNELGDMMPADEIEEMIYEADPQNSNYVQYETFVGMLFL [G54N]	2.9
TKAQVIEAFKVFDRDGNGYVTVDYLRKVLNELGDKMPADEIEEMIYEADPQNSGYVQYETFVGMLFL [M35K]	3.16
TKAQVIEAFKVFDRDGNGYVTVDYLRKVLNELGDHMPADEIEEMIYEADPQNSGYVQYETFVGMLFL [M35H]	3.01
TKAQVIEAFKVFDRDGNGYVTVDYLRKVLNELGDVMPADEIEEMIYEADPQNSGYVQYETFVGMLFL [M35V]	3.38
TKAQVIEAFKVFDRDGFGYVTVDYLRKVLNELGDMMPADEIEEMIYEADPQNSGYVQYETFVGMLFL [N17F]	3.06
TKAQVIEAFKVFDRDGWGYVTVDYLRKVLNELGDMMPADEIEEMIYEADPQNSGYVQYETFVGMLFL [N17W]	2.95
TKAQVIEAFKVFDRDGNGYVTVDYLRKVLNELGDMMPADEIEEMIYEADPQNSGRVQYETFVGMLFL [Y55R]	3.37
TKAQVIEAFKVFDRDGNGYVTVDYLRKVLNELGDMMPADEIEEMIYEADPQNSGQVQYETFVGMLFL [Y55Q]	3.48
TKAQVIEAFKVFDRDGNGYVTVDYLRKVLNELGDMMPADEIEEMIYEADPFNSGYVQYETFVGMLFL [Q51F]	3.58
TKAQVIEAFKVFDRDGNGYVTVDYLRKVLNELGDMMPADEIEEMIYEADPINSGYVQYETFVGMLFL [Q51I]	3.31

Variant	folding stability dG [kcal/mol]
TKAQVIEAFKVFDRDGNGYVTVDYLRKVLNELGDMMPADEIEEMIYEADPQNSGYVQYETFVGMLFW [L67W]	3.08
TKAQVIEAFKVFDRDGNGYVTVDYLRKVLNELGDMMPADEIEEMIYEADPQNSGYVQYETFVGMLFA [L67A]	3.98
TKAQVIEAFKVFDRDGNGYVTVDYLRKALNELGDMMPADEIEEMIYEADPQNSGYVQYETFVGMLFL [V28A]	2.63
TKAQVIEAFKVFDRDGNGYVTVDYLRKILNELGDMMPADEIEEMIYEADPQNSGYVQYETFVGMLFL [V28I]	3.32
TKAQVIEAFKVFDRDHNGYVTVDYLRKVLNELGDMMPADEIEEMIYEADPQNSGYVQYETFVGMLFL [G16H]	2.95
TKAQVIEAFKVFDRDGNGYVTVDYLRKVLNEWGDMMPADEIEEMIYEADPQNSGYVQYETFVGMLFL [L32W]	3.33
TKAQVIEAFKVFDRDGNGYVTVDYLRKVLNELGDMMPADEIEEMIYEADPQNSGYVQYETFRGMLFL [V62R]	1.93
TKAQVIEAFKVFDRDGNGYVTVDYLRKVLNELGDMMPADEIEEMIYEADPQNSGYVQYETFFGMLFL [V62F]	2.15
TKAQVIEAFKVFDRDGNGYVTVDYLRKVLNELGDMMPADEIEEMIYEADPQNSGYVQYETFMGMLFL [V62M]	2.67
TKAQVIEAFKVFDRDGNGYDTVDYLRKVLNELGDMMPADEIEEMIYEADPQNSGYVQYETFVGMLFL [V20D]	2.73
TKAQVIEAFKVFHRDGNGYVTVDYLRKVLNELGDMMPADEIEEMIYEADPQNSGYVQYETFVGMLFL [D13H]	1.95
TKAQVIEAFKVFDRDGNGYVTVDYLRKVLNELADMMPADEIEEMIYEADPQNSGYVQYETFVGMLFL [G33A]	3.79
TKAQVIEAFKVFDRDGNGYVTVDYLRKVLNELGDMMPADEIEEMIYEADWQNSGYVQYETFVGMLFL [P50W]	3.39
TKAQVILAFKVFDRDGNGYVTVDYLRKVLNELGDMMPADEIEEMIYEADPQNSGYVQYETFVGMLFL [E7L]	3.28
TKAQVIMAFKVFDRDGNGYVTVDYLRKVLNELGDMMPADEIEEMIYEADPQNSGYVQYETFVGMLFL [E7M]	3.13
TKAQVIEAFKVFDRDGNGYVTVDYLRKVLNELGDMMIADEIEEMIYEADPQNSGYVQYETFVGMLFL [P37I]	3.41
TKAQVIEAFKVFDRDGNGYVTVDYLRKVLNELGDMMNADEIEEMIYEADPQNSGYVQYETFVGMLFL [P37N]	3.6
TKAQVIEAFKVFDRDGNGYVTVDYLRCVLNELGDMMPADEIEEMIYEADPQNSGYVQYETFVGMLFL [K27C]	3.05
TKAQVIEAFKVFDRDGNGYVTVDYLRKVLNELGDMMPADEIEEMIYEADPQNSGYVQYETFVGSLFL [M64S]	3.08
TKAQVIEAFKVFDRDGNGYVTVDYLRKVLNELGDMMPADEIEEMIYEADPQNSGYVQYETFVGRLFL [M64R]	4.29
TKAQVIEAFKVYDRDGNGYVTVDYLRKVLNELGDMMPADEIEEMIYEADPQNSGYVQYETFVGMLFL [F12Y]	3.71
TKAQVIEAFKVHDRDGNGYVTVDYLRKVLNELGDMMPADEIEEMIYEADPQNSGYVQYETFVGMLFL [F12H]	3.24
TKAQVIEAFKVFDRDGNGYVTVDYLRKVLNELGTMMPADEIEEMIYEADPQNSGYVQYETFVGMLFL [D34T]	3.51
TKAQVIEAFKVFDRDGNGYVTVDYLRKVLNELGFMMPADEIEEMIYEADPQNSGYVQYETFVGMLFL [D34F]	4.68
TKAQVIEAFKVFDRDGNGYVTVDYLRKVLNKLGDMMPADEIEEMIYEADPQNSGYVQYETFVGMLFL [E31K]	3.49
TKAQVIEAFKVFDRDGNGYVTVDYLRKVLNLLGDMMPADEIEEMIYEADPQNSGYVQYETFVGMLFL [E31L]	3.81
TKAQVIEAFKVFDRDGNGYVTVDYLRKVLNELGDMMPADEIEEMIYEADPQNIGYVQYETFVGMLFL [S53I]	3.21

Variant	folding stability dG [kcal/mol]
TKAQVIEAFKVFDRDGNGYVTVDYLRKVLNELGDMMPDDEIEEMIYEADPQNSGYVQYETFVGMLFL [A38D]	3.32
TKAQVIEAFKVFDRDGNGYVTVDYLRKVLNELGDMMPCDEIEEMIYEADPQNSGYVQYETFVGMLFL [A38C]	3.52
TKAQVIEAFKVFDRDGNGYVTVDYLRKVLNELGDMMPVDEIEEMIYEADPQNSGYVQYETFVGMLFL [A38V]	3.61
TKAQVIEAFKVFDRDGNGYVTVDYLRKVLNELGDMMPADEIEEMIYEADPQNSGYVFYETFVGMLFL [Q57F]	3.62
TKAQVLEAFKVFDRDGNGYVTVDYLRKVLNELGDMMPADEIEEMIYEADPQNSGYVQYETFVGMLFL [I6L]	3.66
TKAQVIEAFKKFDRDGNGYVTVDYLRKVLNELGDMMPADEIEEMIYEADPQNSGYVQYETFVGMLFL [V11K]	3.72
TKAQVIEAFKVFDRDGNGYVTVLYLRKVLNELGDMMPADEIEEMIYEADPQNSGYVQYETFVGMLFL [D23L]	3.63
TKAQVIEAFKVFDRDGNGYVTVHYLRKVLNELGDMMPADEIEEMIYEADPQNSGYVQYETFVGMLFL [D23H]	3.84
TKAQVIEAFKVFDRDGNGYVTVIYLRKVLNELGDMMPADEIEEMIYEADPQNSGYVQYETFVGMLFL [D23I]	3.63
TKAQVIEAFKVFDRDGNGMVTVDYLRKVLNELGDMMPADEIEEMIYEADPQNSGYVQYETFVGMLFL [Y19M]	3.3
TKAQVIEAFKVFDRDGNGPVTVDYLRKVLNELGDMMPADEIEEMIYEADPQNSGYVQYETFVGMLFL [Y19P]	1.9
TKAQVIEAFKVFDRDGNGYVTVDYLRKVLNELGDMMPADEIEEMIYEADPQNSGYVQYETFVGMVFL [L65V]	2.72
TKAQVIEAFKVFDRDGNGYVTVDYLRKVLNELGDMMPADEIEEMIYEADPQNSGYVQYETFVGMGFL [L65G]	2.19
TAAQVIEAFKVFDRDGNGYVTVDYLRKVLNELGDMMPADEIEEMIYEADPQNSGYVQYETFVGMLFL [K2A]	3.47
TKAQVIEAFKVFDRDGNGYVTVDYLRKVLNELGDMMPADEITEMIYEADPQNSGYVQYETFVGMLFL [E42T]	3.41
TKAQVIEAFKVFDRDGNGYVFVDYLRKVLNELGDMMPADEIEEMIYEADPQNSGYVQYETFVGMLFL [T21F]	3.29
TKAQVIEAFKVFDRDGNGYVAVDYLRKVLNELGDMMPADEIEEMIYEADPQNSGYVQYETFVGMLFL [T21A]	3.65
TKAQVIEAIKVFDRDGNGYVTVDYLRKVLNELGDMMPADEIEEMIYEADPQNSGYVQYETFVGMLFL [F9I]	4.09
TKAMVIEAFKVFDRDGNGYVTVDYLRKVLNELGDMMPADEIEEMIYEADPQNSGYVQYETFVGMLFL [Q4M]	3.31
TKAYVIEAFKVFDRDGNGYVTVDYLRKVLNELGDMMPADEIEEMIYEADPQNSGYVQYETFVGMLFL [Q4Y]	2.97
TKAQVIEAFKVFDRDGNGYVTVDYLRKVLNELGDMMPADEIEEMIYEADPQNSGYVQYEKFVGMLFL [T60K]	3.72
TKAQVIEAFKVFDRDGNGYVTVDYLRKVLNELGDMMPADEIEEMIYEADPQNSGYVQYEAFVGMLFL [T60A]	3.63
TKAQVIEAFKVFDRDGNGYVTVDMLRKVLNELGDMMPADEIEEMIYEADPQNSGYVQYETFVGMLFL [Y24M]	4.04
TKAQVIEAFKVFDRDGNGYVTVDPLRKVLNELGDMMPADEIEEMIYEADPQNSGYVQYETFVGMLFL [Y24P]	1.24
TKAQVIEAFKVFDRDGNGYVTVDLLRKVLNELGDMMPADEIEEMIYEADPQNSGYVQYETFVGMLFL [Y24L]	4
TKAQVIEAFKVFDRDGNGYVTVDYVRKVLNELGDMMPADEIEEMIYEADPQNSGYVQYETFVGMLFL [L25V]	3.01
